The labels stand for the following.
B1: anti-C3d mouse/human chimeric antibody C8D3 (antibody, V domains shown)
VH: QAYLQQSGAELVRPGASVKMSCKASGYTFTSYYMHWVKQTPRQGLEWIGAIYPGNGDTSYNQKFKGKATLTVDKSSSTAYMQLSSLTSEDSAVYFCAKGFDYWGQGTTVTVSS
VL: DVVMTQTPLSLPVSLGDQASISCRSSQSLVYSNGNTYLHWYLQKPGQSPKLLIYKVSNRFSGVPDRFSGSGSGTDFTLKISRVEAEDLGVYFCSQSTHVPYTFGGGTKLEIKR
notes: also called chimeric C8D3; chimeric C8D3 mAb
B2: anti-C3d Fab of chimeric antibody C8D3 (Fab, V domains shown)
VH: B1 VH
VL: B1 VL
B3: murine anti-C3d hybridoma clone C6 (antibody, V domains shown)
VH: QAYLQQSGAELVRPGASVKMSCKASGYTFTSYYMHWVKQTPRQGLEWIGAIYPGNGDTSYNQKFKGKATLTVDKSSSTAYMQLSSLTSEDSAVYFCAKYGSGYWGQGTTVTVSS
VL: B1 VL
notes: Murine IgG1, kappa

The target in experiment [1] is T1, human complement protein C3d (human, UniProt P01024 1002-1303).
T1 construct: domain: C3d; The assay field of each row says which; also called C3d antigen; C3d protein
Description: avidity; antibody titration on C3d-opsonised CLL patient cells, 'OFA 24 h' sample (FIG. 9); apparent KD (avidity) on C3d-opsonized CLL cells, OFA 24 h sample.

Experiment [2] deals with T1, human complement protein C3d. The experiment can be described thus: flow cytometry (MFI) on CLL cells taken 24 h after ofatumumab infusion (C3d-opsonised). (In general: In flow cytometry, cells or beads pass a laser one at a time.)
Experiment [3] shares this target. Description: surface plasmon resonance (Biacore 3000), C3d immobilised, Fab at 0.5, 2.5, 5, 25 and 50 nM. Background: SPR reads the build-up and loss of mass on a sensor chip optically.
Experiment [4] shares this target. The experiment can be described thus: PEPperCHIP microarray of 15-aa C3d peptides. The source says:
The epitopes on C3d were mapped using PEPperCHIP technology (PEPperPRINT GmbH, Heidelberg, Germany). In brief, 15 amino acid (aa) long peptides with 14 aa overlaps were synthesized based on the C3d aa sequence and immobilized in duplicate on microarray chips. […] The microarrays were read using the LI-COR Odyssey Imaging System and then analyzed using PepSlide® Analyzer software.

The target in experiment [5] is B1. The experiment can be described thus: competition: C8D3 binding to C3d antigen (MFI) with increasing amounts of peptide.

This note sets out measurements from patent publication US20160333082A1 (US Dept. of Health and Human Services, published 2016).

As to B1, the Kd in experiment [1] amounted to 6.7 nM. In addition, the concentration giving a half-maximal response (EC50 (read off the curve)) (as a rule, the midpoint of the concentration-response curve) in experiment [2] is roughly 40 nM.

Consider B2, for which the Kd in experiment [3] was found to be 17 nM.

Regarding B3, the binding result in experiment [4] is listed as “binds”.

With QYQKDAPDHQELNLDVSLQLPSR [epitope 3 derived peptide], the binding result in experiment [5] was “binds”.
